In patent publication US12144864B2, “Tubulysins and protein-tubulysin conjugates” (Regeneron Pharmaceuticals, Inc., priority 2018, dated 2024):

What was measured:
[1] = biological target: T1, STEAP2 endogenously expressed on C4-2 cells (human, UniProt Q8NFT2 1-490); test: cell-based or functional assay
T1 sequence (looked up): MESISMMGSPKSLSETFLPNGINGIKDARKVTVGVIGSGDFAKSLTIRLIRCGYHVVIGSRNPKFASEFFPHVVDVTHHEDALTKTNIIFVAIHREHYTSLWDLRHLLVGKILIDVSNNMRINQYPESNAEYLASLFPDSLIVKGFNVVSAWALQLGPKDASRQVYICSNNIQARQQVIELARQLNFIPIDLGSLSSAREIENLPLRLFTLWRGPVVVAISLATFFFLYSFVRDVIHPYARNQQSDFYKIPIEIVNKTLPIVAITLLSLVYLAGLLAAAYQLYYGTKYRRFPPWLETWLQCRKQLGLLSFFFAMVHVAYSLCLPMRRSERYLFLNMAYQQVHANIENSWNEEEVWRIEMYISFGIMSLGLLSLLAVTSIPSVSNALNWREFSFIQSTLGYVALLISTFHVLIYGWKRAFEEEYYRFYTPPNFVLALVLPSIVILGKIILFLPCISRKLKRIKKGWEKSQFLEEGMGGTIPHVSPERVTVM

[2] = test system: STEAP2 positive C4-2 prostate cancer xenografts; test: In vivo efficacy of anti-STEAP2 ADCs in C4-2 prostate cancer xenografts in SCID mice; parameters: species or system mouse; conditions: single dose 2.5 mg/kg via tail vein; end of study
Description: To determine the in vivo efficacy of anti-STEAP2 antibodies conjugated to tubulysins, studies were performed in immunocompromised mice bearing STEAP2 positive C4-2 prostate cancer xenografts.
For the assay, 7.5×10^6 C4-2 cells (ATCC, Cat #CRL-3314), which endogenously express STEAP2, were suspended in Matrigel (BD Biosciences, Cat #354234) and implanted subcutaneously into the left flank of male CB17 SCID mice (Taconic, Hudson NY). Once tumors had reached an average volume of 220 mm^3 (around Day 15), mice were randomized into groups of 7 and given a single dose of either anti-STEAP2 conjugated antibodies (anti-STEAP2-LP3, anti-STEAP2-LP4, anti-STEAP2-MMAE), isotype control conjugated antibody, or vehicle at 2.5 mg/kg via tail vein injection. Tumors were measured with calipers twice a week until the average size of the vehicle group reached 1500 mm^3. Tumor size was calculated using the formula (length×width^2)/2 and the average tumor size+/−SEM was then calculated. Tumor growth inhibition was calculated according to the following formula: (1−((Tfinal−Tinitial)/(Cfinal−Cinitial)))*100, where treated group (T) and control group (C) represent the mean tumor mass on the day the vehicle group reached 1500 mm^3.

[3] = test system: CTG-2441 prostate cancer PDX; test: Efficacy of STEAP2-Tubulysin ADC in CTG-2441 PDX prostate cancer model in NOG mice; format: in vivo, mouse
Description: (§1) Prostate cancer Patient-Derived Xenograft (PDX) tumor fragments of either CTG-2440 or CTG-2441 were implanted subcutaneously into the flank of male NOG mice. Once the tumor volumes reached approximately 200 mm^3, mice were randomized into groups of eight and were treated according to the schedule shown in Table 16 below. Tumor growth was monitored for 60 days post-implantation.
(§2) The prostate cancer models were derived from the bone metastases of patients with metastatic castrate resistant prostate cancer (mCRPC). STEAP2 expression was confirmed by RNA sequencing data and RNA in situ hybridization.

[4] = test system: CTG-2440 prostate cancer PDX; test: Efficacy of STEAP2-Tubulysin ADC in CTG-2440 PDX prostate cancer model in NOG mice; format: in vivo, mouse
Description: as §1, §2

[5] = biological target: T2, human full length PRLR (accession #NP_000940.1) expressed on HCT15/PRLR cells (human, UniProt P16471 25-622); test: cell-based or functional assay
T2 sequence (looked up): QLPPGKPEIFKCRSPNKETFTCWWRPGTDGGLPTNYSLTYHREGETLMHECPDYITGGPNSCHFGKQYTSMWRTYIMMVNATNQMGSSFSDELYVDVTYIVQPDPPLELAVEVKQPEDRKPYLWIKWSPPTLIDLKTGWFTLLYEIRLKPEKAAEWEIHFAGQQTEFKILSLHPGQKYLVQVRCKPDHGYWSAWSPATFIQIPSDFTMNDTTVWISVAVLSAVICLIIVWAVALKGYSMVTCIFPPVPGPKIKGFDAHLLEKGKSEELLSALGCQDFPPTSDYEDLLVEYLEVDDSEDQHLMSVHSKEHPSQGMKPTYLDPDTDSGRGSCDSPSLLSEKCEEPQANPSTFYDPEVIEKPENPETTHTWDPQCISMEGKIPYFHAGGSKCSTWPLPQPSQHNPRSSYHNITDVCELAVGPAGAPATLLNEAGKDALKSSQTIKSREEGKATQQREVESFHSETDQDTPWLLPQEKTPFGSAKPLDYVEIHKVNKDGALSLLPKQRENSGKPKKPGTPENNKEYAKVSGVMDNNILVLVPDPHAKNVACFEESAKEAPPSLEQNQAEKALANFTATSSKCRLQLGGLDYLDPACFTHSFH

[6] = 1.82 mg/kg QW × 1, total payload dose 40 ug/kg
[7] = 1.82 mg/kg QW × 3, total payload dose 120 ug/kg
[8] = 3.64 mg/kg QW × 3, total payload dose 240 ug/kg
[9] = 1.86 mg/kg QW × 1, total payload dose 40 ug/kg
[10] = 1.86 mg/kg QW × 3, total payload dose 120 ug/kg
[11] = 3.72 mg/kg QW × 3, total payload dose 240 ug/kg

B1: Anti-STEAP2 N297Q Ab-LP3 (antibody, V domains shown)
VH: QVQLVESGGGVVQPGRSLRLSCVASGFTISSYGMNWVRQAPGKGLEWVAVISYDGGNKYSVDSVKGRFTISRDNSKNTLYLQMNSLRAEDSAVYYCARGRYFDLWGRGTLVTVSS
VL: DIQMTQSPSTLSASVGDRVTITCRASQSISSWLAWYQQKPGRAPNLLISKASSLKSGVPSRFSGSGSGTEFTLTVSSLQPDDFATYYCQQYYSYSYTFGQGTKLEIK
modifications: N297Q (EU numbering) in the heavy chain constant region; linker-payload LP3 (payload IVd) clicked to azido-PEG3-amine that transglutaminase put on heavy chain glutamines; DAR 3.8 (Table 7)
% kill, C4-2 cells [1]: 99%
IC50 (nM), cytotoxicity in C4-2 cells (CellTiter-Glo) [1]: 0.097 nM

B2: Anti-STEAP2-MMAE (antibody, V domains shown)
VH: QVQLVESGGGVVQPGRSLRLSCVASGFTISSYGMNWVRQAPGKGLEWVAVISYDGGNKYSVDSVKGRFTISRDNSKNTLYLQMNSLRAEDSAVYYCARGRYFDLWGRGTLVTVSS
VL: DIQMTQSPSTLSASVGDRVTITCRASQSISSWLAWYQQKPGRAPNLLISKASSLKSGVPSRFSGSGSGTEFTLTVSSLQPDDFATYYCQQYYSYSYTFGQGTKLEIK
modifications: conjugated to MMAE (payload of LP8, reference linker-payload); site of conjugation and DAR not stated
Average Final Tumor size mm^3 (mean ± SEM) [2]: 475 ± 118 mm^3
Average Tumor Growth Inhibition (%) [2]: 81%
% kill, C4-2 cells [1]: 99%
IC50 (nM), cytotoxicity in C4-2 cells (CellTiter-Glo) [1]: 0.53 nM

B3: Anti-STEAP2-LP4 (conjugate)
VH: QVQLVESGGGVVQPGRSLRLSCVASGFTISSYGMNWVRQAPGKGLEWVAVISYDGGNKYSVDSVKGRFTISRDNSKNTLYLQMNSLRAEDSAVYYCARGRYFDLWGRGTLVTVSS
VL: DIQMTQSPSTLSASVGDRVTITCRASQSISSWLAWYQQKPGRAPNLLISKASSLKSGVPSRFSGSGSGTEFTLTVSSLQPDDFATYYCQQYYSYSYTFGQGTKLEIK
Average Final Tumor size mm^3 (mean ± SEM) [2]: 258 ± 60 mm^3
Average Tumor Growth Inhibition (%) [2]: 97%
Final tumor volume (mm^3) at termination (mean ± SD) [3, 6]: 171.8 ± 176.1 mm^3
Tumor growth (mm^3) from start of treatment (mean ± SD) [3, 6]: −36.8 ± 167.0 mm^3
Final tumor volume (mm^3) at termination (mean ± SD) [3, 7]: 46.0 ± 15.1 mm^3
Tumor growth (mm^3) from start of treatment (mean ± SD) [3, 7]: −164.0 ± 57.3 mm^3
Final tumor volume (mm^3) at termination (mean ± SD) [3, 8]: 33.5 ± 13.6 mm^3
Tumor growth (mm^3) from start of treatment (mean ± SD) [3, 8]: −179.1 ± 51.3 mm^3
Final tumor volume (mm^3) at termination (mean ± SD) [4, 9]: 179.9 ± 68.5 mm^3
Tumor growth (mm^3) from start of treatment (mean ± SD) [4, 9]: −20.0 ± 65.1 mm^3
Final tumor volume (mm^3) at termination (mean ± SD) [4, 10]: 73.5 ± 53.4 mm^3
Tumor growth (mm^3) from start of treatment (mean ± SD) [4, 10]: −129.3 ± 67.7 mm^3
Final tumor volume (mm^3) at termination (mean ± SD) [4, 11]: 6.0 ± 11.4 mm^3
Tumor growth (mm^3) from start of treatment (mean ± SD) [4, 11]: −196.5 ± 37.1 mm^3

B4: Anti-STEAP2 N297Q Ab-LP4 (antibody, V domains shown)
VH: QVQLVESGGGVVQPGRSLRLSCVASGFTISSYGMNWVRQAPGKGLEWVAVISYDGGNKYSVDSVKGRFTISRDNSKNTLYLQMNSLRAEDSAVYYCARGRYFDLWGRGTLVTVSS
VL: DIQMTQSPSTLSASVGDRVTITCRASQSISSWLAWYQQKPGRAPNLLISKASSLKSGVPSRFSGSGSGTEFTLTVSSLQPDDFATYYCQQYYSYSYTFGQGTKLEIK
modifications: N297Q (EU numbering) in the heavy chain constant region; linker-payload LP4 (payload Ve) clicked to azido-PEG3-amine that transglutaminase put on heavy chain glutamines; DAR 3.8 (Table 7)
% kill, C4-2 cells [1]: 99%
IC50 (nM), cytotoxicity in C4-2 cells (CellTiter-Glo) [1]: 0.15 nM

B5: Anti-STEAP2-LP3 (conjugate)
VH: QVQLVESGGGVVQPGRSLRLSCVASGFTISSYGMNWVRQAPGKGLEWVAVISYDGGNKYSVDSVKGRFTISRDNSKNTLYLQMNSLRAEDSAVYYCARGRYFDLWGRGTLVTVSS
VL: DIQMTQSPSTLSASVGDRVTITCRASQSISSWLAWYQQKPGRAPNLLISKASSLKSGVPSRFSGSGSGTEFTLTVSSLQPDDFATYYCQQYYSYSYTFGQGTKLEIK
Average Final Tumor size mm^3 (mean ± SEM) [2]: 115 ± 6 mm^3
Average Tumor Growth Inhibition (%) [2]: 108%

B6: Anti-PRLR N297Q Ab-LP3 (antibody, V domains shown)
VH: QVQLVESGGGVVQPGRSLRLSCGASGFTFRNYGMQWVRQGPGKGLEWVTLISFDGNDKYYADSVKGRFTISRDNSKNTLFLQMNSLRTEDTAVYYCARGGDFDYWGQGTLVTVSS
VL: DIQMTQSPSSLSASVGDRVTITCRASQDIRKDLGWYQQKPGKAPKRLIYAASSLHSGVPSRFSGSGSGTEFTLTISSLQPEDFATYYCLQHNSYPMYTFGQGTKLEIK
modifications: N297Q (EU numbering) in the heavy chain constant region; linker-payload LP3 (payload IVd) clicked to azido-PEG3-amine that transglutaminase put on heavy chain glutamines; DAR 3.9 (Table 7)
IC50 (nM) on HCT15/PRLR w/ Verapamil (CellTiter-Glo cytotoxicity) [5]: 0.309 nM
IC50 (nM) on HCT15/PRLR w/o Verapamil (CellTiter-Glo cytotoxicity) [5]: 0.525 nM

B7: Anti-PRLR N297Q Ab-LP4 (antibody, V domains shown)
VH: QVQLVESGGGVVQPGRSLRLSCGASGFTFRNYGMQWVRQGPGKGLEWVTLISFDGNDKYYADSVKGRFTISRDNSKNTLFLQMNSLRTEDTAVYYCARGGDFDYWGQGTLVTVSS
VL: DIQMTQSPSSLSASVGDRVTITCRASQDIRKDLGWYQQKPGKAPKRLIYAASSLHSGVPSRFSGSGSGTEFTLTISSLQPEDFATYYCLQHNSYPMYTFGQGTKLEIK
modifications: N297Q (EU numbering) in the heavy chain constant region; linker-payload LP4 (payload Ve) clicked to azido-PEG3-amine that transglutaminase put on heavy chain glutamines; DAR 3.9 (Table 7)
IC50 (nM) on HCT15/PRLR w/ Verapamil (CellTiter-Glo cytotoxicity) [5]: 0.196 nM
IC50 (nM) on HCT15/PRLR w/o Verapamil (CellTiter-Glo cytotoxicity) [5]: 3.31 nM
